How the values were obtained:
[1] = target: T1, human 5T4 (trophoblast glycoprotein), endogenous on the cell surface (human, UniProt Q13641 32-420); experiment: flow cytometry (FL4H median), sdAb-Fc titrated on 5T4-positive T47D cells
T1 construct: also called TPBG; 5T4 oncofetal antigen
T1 sequence: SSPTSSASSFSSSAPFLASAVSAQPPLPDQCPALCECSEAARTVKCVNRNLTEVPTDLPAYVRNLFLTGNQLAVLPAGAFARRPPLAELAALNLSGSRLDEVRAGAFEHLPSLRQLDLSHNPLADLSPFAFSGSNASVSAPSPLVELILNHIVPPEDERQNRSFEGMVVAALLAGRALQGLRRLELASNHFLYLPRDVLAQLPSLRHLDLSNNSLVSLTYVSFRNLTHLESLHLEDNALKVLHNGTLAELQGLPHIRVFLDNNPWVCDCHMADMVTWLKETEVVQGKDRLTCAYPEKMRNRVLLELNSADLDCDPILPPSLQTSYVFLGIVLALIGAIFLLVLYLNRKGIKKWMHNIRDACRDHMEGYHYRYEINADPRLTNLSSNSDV
Description: (§1) Specificity and relative affinity were assessed for purified sdAb-Fcs on 5T4-expressing cells. Binding of 5T4-sdAb-Fc fusion proteins was assessed by flow cytometry using 5T4-expressing cells. A titration series of the fusion protein was incubated with the 5T4-expressing cell lines (approximately 2.5×10⁴ to 5×10⁴ cells/well) for 30 minutes at 4 degrees Celsius in FACS Buffer (PBS 1% BSA, 0.1% NaN₃ pH 7.4) in 96 well plates. Following three wash steps in FACS buffer, an APC-conjugated anti-human Fcγ specific secondary antibody (Jackson ImmunoResearch) was added and incubated for 30 minutes at 4 degrees Celsius. Following three additional wash steps in FACS buffer bound antibody was detected via flow cytometry (IQue Intellicyte).
(§2) Humanized variant of the 5T4 sdAbs were tested for their ability to bind 5T4 expressing cells substantially as described in Example 2, and binding was compared to the parental sdAb. 5T4 expressing T47D cells were used in these studies. Results are shown in FIGS. 2A-2F, which confirm binding of the humanized variants. In some cases, binding was increased compared to the parental sdAb.

[2] = target: T1, human 5T4 (trophoblast glycoprotein), …; experiment: flow cytometry (FL4), sdAb-Fc titrated on HEK-293 freestyle (293FS) cells endogenously expressing 5T4
Description: FIGS. 1A-B depict the ability of various single domain antibodies targeting 5T4 to bind cell surface 5T4. Binding was assessed by flow cytometry on HEK-293 freestyle cells endogenously expressing 5T4.
as §1

[3] = target: T1, human 5T4 (trophoblast glycoprotein), …; experiment: flow cytometry (FL4H median), sdAb-Fc titrated on 5T4-positive T47D cells; remark: listed apart in the source
Description: as §1, §2

[4] = target: T1, human 5T4 (trophoblast glycoprotein), …; experiment: as above; remark: listed apart in the source
Description: as §1, §2

[5] = target: T1, human 5T4 (trophoblast glycoprotein), …; experiment: printed as Affinity 5T4; apparent affinity from flow cytometry titration on Ovcar-5 cells
Description: Binding of exemplary 5T4-targeting constrained CD3 engaging constructs set forth in Table E3 to CD3 on the surface of primary T cells and 5T4 expressing cells (Ovcar-5) was assessed by flow cytometry. The T cells were primary T-cells that were negatively enriched from PBMCs isolated from healthy human donor leukopaks. Bound construct was detected with fluorophore-conjugated secondary antibodies specific for the human Fc (anti-human IgG APC secondary antibody) and binding was measured by flow cytometry. Cells incubated with secondary antibody only served as negative controls. The results, from flow cytometry histograms displaying normalized cell counts versus fluorescence at 200 nM of each construct, are shown in FIG. 4A (cx3253), FIG. 4B (cx3264), FIG. 4C (cx3497), FIG. 4D (cx3499), FIG. 4E (cx3547), FIG. 4F (cx3546), FIG. 4G (cx4224), FIG. 4H (cx4913), FIG. 4I (cx3265), […] (cx4912), FIG. 4K (cx3262), FIG. 4L (cx4911), and FIG. 4M (cx4910). […] However, as shown in the top right and bottom panels of each of the figures, the same constructs were not able to bind to T cells in isolation.
Table E4 summarizes the affinity of exemplary molecules for 5T4 or CD3, as determined from flow cytometry, in these studies.

[6] = target: T1, human 5T4 (trophoblast glycoprotein), …; experiment: flow cytometry on 5T4-positive OVCAR5 (Ovcar-5) cells, anti-human IgG secondary; titration
Description: FIGS. 4A-4M depict the binding of various 5T4-target constrained CD3 engaging constructs to the 5T4 positive Ovcar-5 cell line (top left) and the lack of binding to primary human T-cells (top right). […] Binding was assessed by flow cytometry using an anti-human IgG APC secondary antibody. The histograms display the normalized cell counts vs fluorescence at 200 nM of each construct.
Binding of exemplary 5T4-targeting constrained CD3 engaging constructs set forth in Table E3 to CD3 on the surface of primary T cells and 5T4 expressing cells (Ovcar-5) was assessed by flow cytometry. The T cells were primary T-cells that were negatively enriched from PBMCs isolated from healthy human donor leukopaks. Bound construct was detected with fluorophore-conjugated secondary antibodies specific for the human Fc (anti-human IgG APC secondary antibody) and binding was measured by flow cytometry. Cells incubated with secondary antibody only served as negative controls. […] The results, from flow cytometry histograms displaying normalized cell counts versus fluorescence at 200 nM of each construct, are shown in FIG. 4A (cx3253), FIG. 4B (cx3264), FIG. 4C (cx3497), FIG. 4D (cx3499), FIG. 4E (cx3547), FIG. 4F (cx3546), FIG. 4G (cx4224), FIG. 4H (cx4913), FIG. 4I (cx3265), […] (cx4912), FIG. 4K (cx3262), FIG. 4L (cx4911), and FIG. 4M (cx4910). […]

B1: 16G10 sdAb-Fc (Fc fusion, not shown: a dimerising Fc or GST)
chain: QVQLLQSGGGLVQAGGSLILSCAVSGRPFSSSAMGWFRQAPGKERETVAAVSRNGGSSYYADFVKGRFTISRDNDKNTVYLQMNSLKPEDTAVYYCAARSAAYSRSSETYTEKHDYTYWGQGTQVTVKP
notes: Camelid derived sdAb tested as sdAb-Fc; also called L16G10
EC50 (read off the curve) [1]: ~0.9 nM | EC50 (read off the curve) [2]: ~1 nM

B2: 14B5 sdAb-Fc (Fc fusion, not shown: a dimerising Fc or GST)
chain: QVQLVQSGGGLVQAGDSLTLSCAVSERPFGTYAMGWFRQAPGRERDLVAAVSRNGGASQYGDSVKGRFSISRDNIKNTMYLQMNSLKPEDTAVYYCAARSAAYSRSSEVYTGKDEYYYWGQGTQVTVKP
notes: Camelid derived sdAb tested as sdAb-Fc; also called L14B5
EC50 (read off the curve) [1]: ~0.4 nM | EC50 (read off the curve) [3]: ~0.8 nM | EC50 (read off the curve) [2]: ~0.5 nM

B3: hz12E9v5 sdAb-Fc (Fc fusion)
chain: EVQLVESGGGEVQPGGSLRLSCAASRRPFSSKTMAWFRQAPGKEREFVAAVRWIGGATRYTESVKGRFTISRDNAKNTLYLQMSSLRAEDTAVYYCAAGQAWGTKFTDYSDWGQGTLVTVKP
notes: Humanized variant of 12E9, linked to a human Fc; not shown: human Fc
EC50 (read off the curve) [4]: ~0.1 nM

B4: hz12E9v7 sdAb-Fc (Fc fusion)
chain: EVQLVESGGGEVQPGGSLRLSCAASRRPFSSKTMAWFRQAPGKEREFVAAVRWIGGATRYTDSVKGRFSISKDNAKNTVYLQMSSLRAEDTAVYYCAAGQAWGTKFTDYSDWGQGTLVTVKP
notes: as for B3
EC50 (read off the curve) [4]: ~0.1 nM

B5: hz12E9v8 sdAb-Fc (Fc fusion)
chain: EVQLVESGGGEVQPGGSLRLSCAASRRPFSSKTMAWFRQAPGKEREFVAAVRWIGGATRYAESVKGRFTISRDNAINTVYLQMNSLKSEDTAVYYCAAGQAWGTKFTDYSDWGQGTLVTVKP
notes: as for B3
EC50 (read off the curve) [4]: ~0.1 nM

B6: cx3499, 5T4-targeted constrained CD3 engaging construct with a 41BB binding domain (bispecific antibody)
chain 1: QVQLVQSGGGLVQAGGSLRLSCAASRRPFSSKTMAWFRQTPGKEREFVAAVRWIGGATRYTDSVKGRFSISKDNAINTVYLQMNSLKSEDTAVYYCAAGQAWGTKFTDYSDWGQGTQVTVKPDKTHTCPPCPAPELLGGPSVFLFPPKPKDTLMISRTPEVTCVVVDVSHEDPEVKFNWYVDGVEVHNAKTKPREEQYNSTYRVVSVLTVLHQDWLNGKEYKCKVSNKALPAPIEKTISKAKGQPREPQVYTLPPCRDELTKNQVSLWCLVKGFYPSDIAVEWESNGQPENNYKTTPPVLDSDGSFFLYSKLTVDKSRWQQGNVFSCSVMHEALHNHYTQKSLSLSPTGGSGGGGIEPDIGGSGGSEVQLVESGGGLVQPGGSLRLSCAASGFTFNTYAMNWVRQAPGKCLEWVARIRSKYNNYATYYADSVKGRFTISRDDAKNTLYLQMSSLRAEDTAVYYCVRHGNFGNSYVSWFAYWGQGTLVTVKPQVQLVQSGGGLVQAGDSLTLSCAVSERPFGTYAMGWFRQAPGRERDLVAAVSRNGGASQYGDSVKGRFSISRDNIKNTMYLQMNSLKPEDTAVYYCAARSAAYSRSSEVYTGKDEYYYWGQGTQVTVKP
chain 2: not shown
notes: Heterodimeric multispecific construct (5T4 x CD3 x 41BB)
Kd [5]: 0.653 nM | EC50 (read off the curve) [6]: ~0.7 nM

B7: cx3497, 5T4-targeted constrained CD3 engaging construct with a 41BB binding domain (bispecific antibody)
chain 1: QVQLVQSGGGLVQAGGSLRLSCAASRRPFSSKTMAWFRQTPGKEREFVAAVRWIGGATRYTDSVKGRFSISKDNAINTVYLQMNSLKSEDTAVYYCAAGQAWGTKFTDYSDWGQGTQVTVKPDKTHTCPPCPAPELLGGPSVFLFPPKPKDTLMISRTPEVTCVVVDVSHEDPEVKFNWYVDGVEVHNAKTKPREEQYNSTYRVVSVLTVLHQDWLNGKEYKCKVSNKALPAPIEKTISKAKGQPREPQVYTLPPCRDELTKNQVSLWCLVKGFYPSDIAVEWESNGQPENNYKTTPPVLDSDGSFFLYSKLTVDKSRWQQGNVFSCSVMHEALHNHYTQKSLSLSPTGGSGGGGIEPDIGGSGGSEVQLVESGGGLVQPGGSLRLSCAASGFTFNTYAMNWVRQAPGKCLEWVARIRSKYNNYATYYADSVKGRFTISRDDAKNTLYLQMSSLRAEDTAVYYCVRHGNFGNSYVSWFAYWGQGTLVTVKPQVQLLQSGGGLVQAGGSLILSCAVSGRPFSSSAMGWFRQAPGKERETVAAVSRNGGSSYYADFVKGRFTISRDNDKNTVYLQMNSLKPEDTAVYYCAARSAAYSRSSETYTEKHDYTYWGQGTQVTVKP
chain 2: not shown
notes: as for B6
Kd [5]: 0.646 nM | EC50 (read off the curve) [6]: ~0.7 nM

B8: 4D3 sdAb-Fc (Fc fusion, not shown: a dimerising Fc or GST)
chain: QVQLQESGGGLVQAGGSLRLSCAASRRPFSSKTMAWFRQTPGKEREFVAAVRWIGGATRYTDSVKGRFSISKDNAINTVYLQTNSLKSEDTAVYYCAAGQTWGTKFTDYSDWGQGTLVTVKP
notes: Camelid derived sdAb tested as sdAb-Fc
EC50 (read off the curve) [2]: ~0.2 nM

B9: 12E9 sdAb-Fc (Fc fusion, not shown: a dimerising Fc or GST)
chain: QVQLVQSGGGLVQAGGSLRLSCAASRRPFSSKTMAWFRQTPGKEREFVAAVRWIGGATRYTDSVKGRFSISKDNAINTVYLQMNSLKSEDTAVYYCAAGQAWGTKFTDYSDWGQGTQVTVKP
notes: Camelid derived sdAb tested as sdAb-Fc; also called L12E9; 12E9-Fc
EC50 (read off the curve) [1]: ~0.2 nM | EC50 (read off the curve) [4]: ~0.1 nM | EC50 (read off the curve) [2]: ~0.1 nM

B10: cx3253, 5T4-targeted constrained CD3 engaging construct with a 41BB binding domain (bispecific antibody)
chain 1: QVQLVQSGGGLVQAGGSLRLSCAASRRPFSSKTMAWFRQTPGKEREFVAAVRWIGGATRYTDSVKGRFSISKDNAINTVYLQMNSLKSEDTAVYYCAAGQAWGTKFTDYSDWGQGTQVTVKPDKTHTCPPCPAPELLGGPSVFLFPPKPKDTLMISRTPEVTCVVVDVSHEDPEVKFNWYVDGVEVHNAKTKPREEQYNSTYRVVSVLTVLHQDWLNGKEYKCKVSNKALPAPIEKTISKAKGQPREPQVYTLPPCRDELTKNQVSLWCLVKGFYPSDIAVEWESNGQPENNYKTTPPVLDSDGSFFLYSKLTVDKSRWQQGNVFSCSVMHEALHNHYTQKSLSLSPTGGSGGGGIEPDIGGSGGSEVQLVESGGGLVQPGGSLRLSCAASGFTFNTYAMNWVRQAPGKCLEWVARIRSKYNNYATYYADSVKGRFTISRDDAKNTLYLQMSSLRAEDTAVYYCVRHGNFGNSYVSWFAYWGQGTLVTVKPQVQLVQSGGGLVQAGASLRLSCVASGRTRSLRTMAWFRQAPGKERIFVAAISWRSDSTYYADSVKGRFTISRDNAKNTAYLQMNTLKPEDTAVYYCAAGGGWLATTPDEYTYWGQGTLVTVKP
chain 2: not shown
notes: as for B6
Kd [5]: 0.12 nM

B11: 7E1 sdAb-Fc (Fc fusion, not shown: a dimerising Fc or GST)
chain: QVQLVQSGGGLVQAGASLRLSCVASGRTRSLRTMAWFRQAPGKERIFVAAISWRSDSTYYADSVKGRFTISRDNAKNTAYLQMNTLKPEDTAVYYCAAGGGWLATTPDEYTYWGQGTLVTVKP
notes: as for B8
EC50 (read off the curve) [2]: ~0.2 nM

B12: 14F4 sdAb-Fc (Fc fusion, not shown: a dimerising Fc or GST)
chain: QVQLQESGGGLMQAGDSLRLSCVVSGVTWNSYTMAWFRQAPGKEREFVAAIRWTVDTTYYADFVKGRFTISRDYAKKTMYLQMNNLKPEDAAVYYCAVGRKWPKADDYWGQGTLVTVKP
notes: as for B8
EC50 (read off the curve) [2]: ~1 nM

Source: patent publication US20210340273A1 (INHLBRX, published 2021)
